Sequences and labels used below:
B1: glmS ribozyme (parent)
chain: AUAAAAGCGCCAGAACUACAGAAAUGUAGUUGACGAGGAGGAGGUUUAUCGAAUUUUCGGCGGAUGCCUCCAAA

Common to all, as to details: with glucosamine-6-phosphate
Variants of B1 are the subject of series [1]. In words: self-cleavage kobs at 40 uM GlcN6P; higher = faster cleavage; RNA array. Summed up:
(§1)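 Tiles bearing barcoded ribozyme variants, transcribed in situ by E. coli RNA polymerase on sequenced MiSeq chips, were imaged over ~14 h at 37 °C using a hybridised Cy3 probe. Glucosamine-6-phosphate was supplied at 40 μM to 10 mM in HEPES/KCl/Mg(OAc)2 buffer. kobs came from one- or two-exponential decay fits to normalised per-tile medians, and weighted Michaelis–Menten fits then provided kcat and KM.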

In series [2] the parent is B1. Nature of the series: self-cleavage kobs at 160 uM GlcN6P; higher = faster cleavage; RNA array. In outline: as §1
Variants of B1 are the subject of series [3]. In words: self-cleavage kobs at 640 uM GlcN6P; higher = faster cleavage; RNA array. Summed up: as §1
Variants of B1 are the subject of series [4]. In words: self-cleavage kobs at 2500 uM GlcN6P; higher = faster cleavage; RNA array. Summed up:
as §1

Series [5] covers variants of B1. Nature of the series: self-cleavage kobs at 10000 uM GlcN6P; higher = faster cleavage; RNA array. In outline:
as §1

± gives the standard error. This sample holds only a part of the variants without activity.

As to U31G A33G U56C, the “self-cleavage kobs at 40 uM GlcN6P” value in series [1] was below 1e-05 s⁻¹. For the same variant, the “self-cleavage kobs at 160 uM GlcN6P” value in series [2] was below 1e-05 s⁻¹. Moreover, in series [3], the “self-cleavage kobs at 640 uM GlcN6P” value was below 1e-05 s⁻¹. In addition, in series [4], the “self-cleavage kobs at 2500 uM GlcN6P” value was below 1e-05 s⁻¹.
Turning to G29U G32A U65G G66A, the “self-cleavage kobs at 40 uM GlcN6P” value in series [1] was below 1e-05 s⁻¹. In addition, in series [5], the “self-cleavage kobs at 10000 uM GlcN6P” value worked out at 4.66e-05 ± 1.9e-05 s⁻¹.
For the variant C8A A15U, the “self-cleavage kobs at 40 uM GlcN6P” value in series [1] was below 1e-05 s⁻¹. Besides, the “self-cleavage kobs at 160 uM GlcN6P” value in series [2] was below 1e-05 s⁻¹. Besides, the “self-cleavage kobs at 640 uM GlcN6P” value in series [3] is below 1e-05 s⁻¹. Further, the “self-cleavage kobs at 2500 uM GlcN6P” value in series [4] is below 1e-05 s⁻¹. Also, the “self-cleavage kobs at 10000 uM GlcN6P” value in series [5] was below 1e-05 s⁻¹.
As for G43C U57A C70G, the “self-cleavage kobs at 40 uM GlcN6P” value in series [1] was below 1e-05 s⁻¹. Moreover, the “self-cleavage kobs at 640 uM GlcN6P” value in series [3] was below 1e-05 s⁻¹. Moreover, the “self-cleavage kobs at 2500 uM GlcN6P” value in series [4] is below 1e-05 s⁻¹.
In the case of C16G U31A G35C G40A, the “self-cleavage kobs at 40 uM GlcN6P” value in series [1] is below 1e-05 s⁻¹. For the same variant, in series [4], the “self-cleavage kobs at 2500 uM GlcN6P” value is below 1e-05 s⁻¹. In addition, the “self-cleavage kobs at 10000 uM GlcN6P” value in series [5] was below 1e-05 s⁻¹.
Turning to C34A A48C, the “self-cleavage kobs at 40 uM GlcN6P” value in series [1] is below 1e-05 s⁻¹. For the same variant, in series [4], the “self-cleavage kobs at 2500 uM GlcN6P” value is below 1e-05 s⁻¹. Besides, the “self-cleavage kobs at 10000 uM GlcN6P” value in series [5] was below 1e-05 s⁻¹.
For C34U G40U C67G, in series [1], the “self-cleavage kobs at 40 uM GlcN6P” value was below 1e-05 s⁻¹. For the same variant, the “self-cleavage kobs at 2500 uM GlcN6P” value in series [4] was below 1e-05 s⁻¹. Also, the “self-cleavage kobs at 10000 uM GlcN6P” value in series [5] is below 1e-05 s⁻¹.
Regarding G43C A53G, the “self-cleavage kobs at 40 uM GlcN6P” value in series [1] is below 1e-05 s⁻¹. Besides, in series [2], the “self-cleavage kobs at 160 uM GlcN6P” value was below 1e-05 s⁻¹. For the same variant, the “self-cleavage kobs at 640 uM GlcN6P” value in series [3] was below 1e-05 s⁻¹.
As for U31C C68A, the “self-cleavage kobs at 40 uM GlcN6P” value in series [1] was below 1e-05 s⁻¹. The “self-cleavage kobs at 10000 uM GlcN6P” value in series [5] was below 1e-05 s⁻¹.
As to A53U G59U, in series [1], the “self-cleavage kobs at 40 uM GlcN6P” value was below 1e-05 s⁻¹. Also, the “self-cleavage kobs at 10000 uM GlcN6P” value in series [5] is 4.13e-05 ± 7.7e-06 s⁻¹.
Turning to G7C G44C A64U, the “self-cleavage kobs at 40 uM GlcN6P” value in series [1] is below 1e-05 s⁻¹. Moreover, the “self-cleavage kobs at 10000 uM GlcN6P” value in series [5] is below 1e-05 s⁻¹.
As for G37C G38C G40U U55A, the “self-cleavage kobs at 40 uM GlcN6P” value in series [1] was below 1e-05 s⁻¹. The “self-cleavage kobs at 2500 uM GlcN6P” value in series [4] is below 1e-05 s⁻¹.
Turning to C8U G35A G59U, the “self-cleavage kobs at 40 uM GlcN6P” value in series [1] was below 1e-05 s⁻¹.
Regarding U30A U56A, the “self-cleavage kobs at 40 uM GlcN6P” value in series [1] worked out at 9.28e-05 ± 1.4e-05 s⁻¹. Moreover, the “self-cleavage kobs at 10000 uM GlcN6P” value in series [5] amounted to 0.00496 ± 0.00075 s⁻¹.
As to U55C G63U, the “self-cleavage kobs at 40 uM GlcN6P” value in series [1] is below 1e-05 s⁻¹.
Take G41A C61U: the “self-cleavage kobs at 40 uM GlcN6P” value in series [1] was below 1e-05 s⁻¹. In addition, the “self-cleavage kobs at 160 uM GlcN6P” value in series [2] is below 1e-05 s⁻¹. Further, the “self-cleavage kobs at 640 uM GlcN6P” value in series [3] is below 1e-05 s⁻¹. The “self-cleavage kobs at 10000 uM GlcN6P” value in series [5] is below 1e-05 s⁻¹.
For the variant C16A U49C C71G, the “self-cleavage kobs at 40 uM GlcN6P” value in series [1] was below 1e-05 s⁻¹. Besides, the “self-cleavage kobs at 10000 uM GlcN6P” value in series [5] is below 1e-05 s⁻¹.
On to C10G C68A, for which, in series [1], the “self-cleavage kobs at 40 uM GlcN6P” value is below 1e-05 s⁻¹.
With U49C A52C, the “self-cleavage kobs at 40 uM GlcN6P” value in series [1] is below 1e-05 s⁻¹. In series [2], the “self-cleavage kobs at 160 uM GlcN6P” value is below 1e-05 s⁻¹. In addition, the “self-cleavage kobs at 2500 uM GlcN6P” value in series [4] is below 1e-05 s⁻¹. For the same variant, the “self-cleavage kobs at 10000 uM GlcN6P” value in series [5] is below 1e-05 s⁻¹.
With G41U C61G, the “self-cleavage kobs at 40 uM GlcN6P” value in series [1] is below 1e-05 s⁻¹. Moreover, the “self-cleavage kobs at 160 uM GlcN6P” value in series [2] was below 1e-05 s⁻¹. In addition, the “self-cleavage kobs at 640 uM GlcN6P” value in series [3] is below 1e-05 s⁻¹. In addition, the “self-cleavage kobs at 2500 uM GlcN6P” value in series [4] was below 1e-05 s⁻¹. Moreover, in series [5], the “self-cleavage kobs at 10000 uM GlcN6P” value is below 1e-05 s⁻¹.
With U54G G63A A64U C70U, in series [1], the “self-cleavage kobs at 40 uM GlcN6P” value was below 1e-05 s⁻¹.
Still for that read-out and setting: to A42G U57A G66U belongs below 1e-05 s⁻¹.
With C10A G59A, the “self-cleavage kobs at 40 uM GlcN6P” value in series [1] is below 1e-05 s⁻¹. For the same variant, the “self-cleavage kobs at 640 uM GlcN6P” value in series [3] was below 1e-05 s⁻¹.
For C10U G63U C70U, the “self-cleavage kobs at 40 uM GlcN6P” value in series [1] was below 1e-05 s⁻¹. Also, the “self-cleavage kobs at 10000 uM GlcN6P” value in series [5] is below 1e-05 s⁻¹.
As for U31G U45G C61A, the “self-cleavage kobs at 40 uM GlcN6P” value in series [1] is below 1e-05 s⁻¹. In series [4], the “self-cleavage kobs at 2500 uM GlcN6P” value was below 1e-05 s⁻¹. In addition, the “self-cleavage kobs at 10000 uM GlcN6P” value in series [5] was below 1e-05 s⁻¹.
A36G C58U C70U: the “self-cleavage kobs at 40 uM GlcN6P” value in series [1] was below 1e-05 s⁻¹. Moreover, the “self-cleavage kobs at 160 uM GlcN6P” value in series [2] is below 1e-05 s⁻¹. Besides, in series [3], the “self-cleavage kobs at 640 uM GlcN6P” value was below 1e-05 s⁻¹.

The values are drawn from the supplement of paper PMC7125110.
